The source of these data is patent US20220220215A1 (CRESCENDO BIOLOGICS, published 2022).

In assay [1] the target is T1, human PD-1 expressed on CHO cells (human, UniProt Q15116 21-288).
T1 construct: also called CHO huPD1; CHO human PD1 cells
Put plainly: flow cytometry on CHO huPD1 cells. Background: Flow cytometry measures light scatter and fluorescence of single cells or particles in a stream.

Assay [2] has as its target T1, human PD-1 expressed on CHO cells. Nature of the assay: FMAT/Mirrorball on CHO huPD1 cells. As to the method: Binding of His-tagged molecules to CHO human CD137, CHO parent and CHO human PD1 cells was assessed using Fluorescence Microvolume Assay Technology (FMAT). All reagents were prepared in FMAT assay buffer (pH 7.4) containing PBS, 0.1% Bovine Serum Albumin, 0.05% Sodium Azide. […] Fluorescence emission was then measured on the TTP Mirrorball plate reader in the FL2 (502 nm-537 nm) and FL5 (677-800 nm) channels following excitation at 488 nm and 640 nm. Data was gated on FL5 perimeter and peak intensity and the FL2 median mean fluorescence intensity of the gated data used for determination of VH binding. Monovalent CD137 specific Humabody® VH, and trispecific molecules with a CD137 binding arm bound to CHO CD137 expressing cells. Trispecific Humabody® VH, with a PD1 binding arm bound to PD1 expressing cells.

For assay [3], the target named is T2, human CD137 expressed on CHO cells (human, UniProt Q07011 18-255).
T2 construct: also called CHO huCD137; CHO human CD137 cells
Nature of the assay: FMAT/Mirrorball on CHO huCD137 cells. The method, boiled down: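 His-tagged VH molecules bound to CHO cells expressing human PD-1 or human CD137, with CHO parent cells as control, in PBS pH 7.4, 0.1% BSA, 0.05% sodium azide. Read by FMAT on Mirrorball (ex 488/640 nm); binding taken as FL2 median fluorescence intensity of FL5-gated events.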

For assay [4], the target named is T2, human CD137 expressed on CHO cells. Nature of the assay: flow cytometry on CHO huCD137 cells.

B1: TPP-1027: CD137A -6GS-HSA2-6GS-PD138G7(G109D)-His (bispecific antibody)
chain: EVQLVESGGGLVQPGGSLRLSCAASGFTLSNYWMNWVRQAPGKGLEWVANINQDGSERYYVDSVKGRFTISRDNAKNSLYLQMNSLRAEDTAVYYCARGGEGYGVDHYGLDVSGQGTTVTVSSGGGGSGGGGSGGGGSGGGGSGGGGSGGGGSEVQLVESGGGLVKPGGSLRLSCAASGFTFSNYNMNWVRQAPGKGLEWVSSISSAGTHIYYADSVKGRFTISRDNAKNSLYLQMNSLRAEDTAVYYCARDPHSTGWYKDFDYWGQGTLVTVSSGGGGSGGGGSGGGGSGGGGSGGGGSGGGGSEVQLVESGGGVVRPGGSLRLSCAASGFTFDDYAMSWVRQAPGKGLEWVSGITWNGGSTGYADSVKDRFTISRDNAKNSLYLQMNSLRAEDTALYYCVRDKYSYAWSYDDFDIWGQGTMVTVSSAAAHHHHHH
notes: Single-chain VH fusion (CD137 VH, HSA VH, PD-1 VH), His tag
One may read the EC50 as the concentration needed to bring the measured effect to its halfway point. As to B1, the EC50 is 5.01 nM in assay [1], 0.173 nM in assay [2], 0.0672 nM in assay [3] and 1.47 nM in assay [4].

B2: TPP-972: CD137A-6GS-PDA-6GS-HSA2-His (bispecific antibody)
chain: EVQLVESGGGLVQPGGSLRLSCAASGFTLSNYWMNWVRQAPGKGLEWVANINQDGSERYYVDSVKGRFTISRDNAKNSLYLQMNSLRAEDTAVYYCARGGEGYGVDHYGLDVSGQGTTVTVSSGGGGSGGGGSGGGGSGGGGSGGGGSGGGGSEVQLVESGGGLVQPGRSLRLSCAASGFTFDDYALHWVRQAPGKDLEWVSGISWNGGSYGYADSVKGRFTISRDNAKNSLYLQMNSLRAEDTALYYCVREKGPGLTGSTADYYGLDAWGQGTMVTVSSGGGGSGGGGSGGGGSGGGGSGGGGSGGGGSEVQLVESGGGLVKPGGSLRLSCAASGFTFSNYNMNWVRQAPGKGLEWVSSISSAGTHIYYADSVKGRFTISRDNAKNSLYLQMNSLRAEDTAVYYCARDPHSTGWYKDFDYWGQGTLVTVSSAAAHHHHHH
notes: Single-chain VH fusion (CD137 VH, PD-1 VH, HSA VH), His tag
On to B2, for which the EC50 in assay [1] worked out at 33 nM; in assay [2], 0.15 nM; in assay [3], 0.0533 nM.

B3: TPP-969: PDA-6GS-HSA2-6GS-172E1-13-His (bispecific antibody)
chain: EVQLVESGGGLVQPGRSLRLSCAASGFTFDDYALHWVRQAPGKDLEWVSGISWNGGSYGYADSVKGRFTISRDNAKNSLYLQMNSLRAEDTALYYCVREKGPGLTGSTADYYGLDAWGQGTMVTVSSGGGGSGGGGSGGGGSGGGGSGGGGSGGGGSEVQLVESGGGLVKPGGSLRLSCAASGFTFSNYNMNWVRQAPGKGLEWVSSISSAGTHIYYADSVKGRFTISRDNAKNSLYLQMNSLRAEDTAVYYCARDPHSTGWYKDFDYWGQGTLVTVSSGGGGSGGGGSGGGGSGGGGSGGGGSGGGGSEVQLVESGGGVVQPGGSLRLSCAASGFTFSNYGMHWVRQAPGKGLEWVAVISNDGNTKTYADSVKGRFTISRDNSKNTLYLQMNSLRAEDTAVYYCAQDETTTVTASYYFDYWGQGTLVTVSSAAAHHHHHH
notes: Single-chain VH fusion (PD-1 VH, HSA VH, CD137 VH), His tag
Turning to B3, the values for the half-maximal effective concentration (EC50) in assay [2], in assay [3] and in assay [4] were 0.142 nM, 0.171 nM and 11.6 nM, respectively.

B4: TPP-1245 CD137A-6GS-PDA2-6GS-HSA2 (bispecific antibody)
chain: EVQLVESGGGLVQPGGSLRLSCAASGFTLSNYWMNWVRQAPGKGLEWVANINQDGSERYYVDSVKGRFTISRDNAKNSLYLQMNSLRAEDTAVYYCARGGEGYGVDHYGLDVSGQGTTVTVSSGGGGSGGGGSGGGGSGGGGSGGGGSGGGGSEVQLVESGGGVVRPGGSLRLSCAASGFTFDDYAMSWVRQAPGKGLEWVSGITWNAGSTGYADSVKGRFTISRDNAKNSLYLQMNSLRAEDTALYYCVRDKYSYAWSYDDFDIWGQGTMVTVSSGGGGSGGGGSGGGGSGGGGSGGGGSGGGGSEVQLVESGGGLVKPGGSLRLSCAASGFTFSNYNMNWVRQAPGKGLEWVSSISSAGTHIYYADSVKGRFTISRDNAKNSLYLQMNSLRAEDTAVYYCARDPHSTGWYKDFDYWGQGTLVTVSS
As to B4, the values for the 50% effective concentration (EC50) in assay [1] and in assay [4] were 183 nM and 4.4 nM, respectively.

B5: TPP-1293 (PDBlocker1.92-6GS- CD137A -6GS-HSA2) (bispecific antibody)
chain: EVQLVESGGGLVKPGGSLRLSCAASGFTFSDESMTWMRQAPGKGLEWVSYISSGGGVKFYADSVKGRFTISRDNAKNSLYLQMNSLRAEDTAVYYCAREAPLRLGESPHDAFDISGQGTMVTVSSGGGGSGGGGSGGGGSGGGGSGGGGSGGGGSEVQLVESGGGLVQPGGSLRLSCAASGFTLSNYWMNWVRQAPGKGLEWVANINQDGSERYYVDSVKGRFTISRDNAKNSLYLQMNSLRAEDTAVYYCARGGEGYGVDHYGLDVSGQGTTVTVSSGGGGSGGGGSGGGGSGGGGSGGGGSGGGGSEVQLVESGGGLVKPGGSLRLSCAASGFTFSNYNMNWVRQAPGKGLEWVSSISSAGTHIYYADSVKGRFTISRDNAKNSLYLQMNSLRAEDTAVYYCARDPHSTGWYKDFDYWGQGTLVTVSS
Turning to B5, the EC50 in assay [1] came to 44.8 nM.

B6: TPP-1010: PD138G7(G109D)-6GS-HSA2-6GS- CD137D -His (bispecific antibody)
chain: EVQLVESGGGVVRPGGSLRLSCAASGFTFDDYAMSWVRQAPGKGLEWVSGITWNGGSTGYADSVKDRFTISRDNAKNSLYLQMNSLRAEDTALYYCVRDKYSYAWSYDDFDIWGQGTMVTVSSGGGGSGGGGSGGGGSGGGGSGGGGSGGGGSEVQLVESGGGLVKPGGSLRLSCAASGFTFSNYNMNWVRQAPGKGLEWVSSISSAGTHIYYADSVKGRFTISRDNAKNSLYLQMNSLRAEDTAVYYCARDPHSTGWYKDFDYWGQGTLVTVSSGGGGSGGGGSGGGGSGGGGSGGGGSGGGGSEVQLVESGGGVVQPGGSLRLSCAASGFTFSNYGMHWVRQAPGKGLEWVAVISNDGNTKTYADSVKGRFTISRDNSKNTLYLQMNSLRAEDTAVYYCAQDETTTVTASYYFDYWGQGTLVTVSSAAAHHHHHH
notes: as for B3
Regarding B6, the half-maximal effective concentration (EC50) came out at 0.531 nM in assay [1], 0.162 nM in assay [2], 0.101 nM in assay [3] and 9.39 nM in assay [4].

B7: TPP-1246 CD137A-6GS-HSA2-6GS-PD138G7(G109D) (bispecific antibody)
chain: EVQLVESGGGLVQPGGSLRLSCAASGFTLSNYWMNWVRQAPGKGLEWVANINQDGSERYYVDSVKGRFTISRDNAKNSLYLQMNSLRAEDTAVYYCARGGEGYGVDHYGLDVSGQGTTVTVSSGGGGSGGGGSGGGGSGGGGSGGGGSGGGGSEVQLVESGGGLVKPGGSLRLSCAASGFTFSNYNMNWVRQAPGKGLEWVSSISSAGTHIYYADSVKGRFTISRDNAKNSLYLQMNSLRAEDTAVYYCARDPHSTGWYKDFDYWGQGTLVTVSSGGGGSGGGGSGGGGSGGGGSGGGGSGGGGSEVQLVESGGGVVRPGGSLRLSCAASGFTFDDYAMSWVRQAPGKGLEWVSGITWNGGSTGYADSVKDRFTISRDNAKNSLYLQMNSLRAEDTALYYCVRDKYSYAWSYDDFDIWGQGTMVTVSS
Consider B7, for which the half-maximal effective concentration (EC50) in assay [1] amounted to 20.5 nM; in assay [4], 2.48 nM.

B8: TPP-1290 PD138G7(G109D)-6GS-CD137A-6GS-HSA2 (bispecific antibody)
chain: EVQLVESGGGVVRPGGSLRLSCAASGFTFDDYAMSWVRQAPGKGLEWVSGITWNGGSTGYADSVKDRFTISRDNAKNSLYLQMNSLRAEDTALYYCVRDKYSYAWSYDDFDIWGQGTMVTVSSGGGGSGGGGSGGGGSGGGGSGGGGSGGGGSEVQLVESGGGLVQPGGSLRLSCAASGFTLSNYWMNWVRQAPGKGLEWVANINQDGSERYYVDSVKGRFTISRDNAKNSLYLQMNSLRAEDTAVYYCARGGEGYGVDHYGLDVSGQGTTVTVSSGGGGSGGGGSGGGGSGGGGSGGGGSGGGGSEVQLVESGGGLVKPGGSLRLSCAASGFTFSNYNMNWVRQAPGKGLEWVSSISSAGTHIYYADSVKGRFTISRDNAKNSLYLQMNSLRAEDTAVYYCARDPHSTGWYKDFDYWGQGTLVTVSS
On to B8, for which the 50% effective concentration (EC50) in assay [1] came out at 22.7 nM; in assay [4], 4.45 nM.

B9: TPP-1247 CD137A-6GS-HSA3-6GS-PD138G7(G109D) (bispecific antibody)
chain: EVQLVESGGGLVQPGGSLRLSCAASGFTLSNYWMNWVRQAPGKGLEWVANINQDGSERYYVDSVKGRFTISRDNAKNSLYLQMNSLRAEDTAVYYCARGGEGYGVDHYGLDVSGQGTTVTVSSGGGGSGGGGSGGGGSGGGGSGGGGSGGGGSEVQLLESGGGLVKPGGSLRLSCAASGFTVSSYTMNWVRQAPGKGLEWVSSISSSGRYIYYADSVKGRFTISRDNAKNSLYLQMNSLRAEDTAVYYCARDPRMVGNPHEFDIWGQGTMVTVSSGGGGSGGGGSGGGGSGGGGSGGGGSGGGGSEVQLVESGGGVVRPGGSLRLSCAASGFTFDDYAMSWVRQAPGKGLEWVSGITWNGGSTGYADSVKDRFTISRDNAKNSLYLQMNSLRAEDTALYYCVRDKYSYAWSYDDFDIWGQGTMVTVSS
As to B9, the EC50 is 25.4 nM in assay [1] and 3.39 nM in assay [4].

B10: TPP-973: CD137A -6GS-PDA2-6GS-HSA2-His (bispecific antibody)
chain: EVQLVESGGGLVQPGGSLRLSCAASGFTLSNYWMNWVRQAPGKGLEWVANINQDGSERYYVDSVKGRFTISRDNAKNSLYLQMNSLRAEDTAVYYCARGGEGYGVDHYGLDVSGQGTTVTVSSGGGGSGGGGSGGGGSGGGGSGGGGSGGGGSEVQLVESGGGVVRPGGSLRLSCAASGFTFDDYAMSWVRQAPGKGLEWVSGITWNAGSTGYADSVKGRFTISRDNAKNSLYLQMNSLRAEDTALYYCVRDKYSYAWSYDDFDIWGQGTMVTVSSGGGGSGGGGSGGGGSGGGGSGGGGSGGGGSEVQLVESGGGLVKPGGSLRLSCAASGFTFSNYNMNWVRQAPGKGLEWVSSISSAGTHIYYADSVKGRFTISRDNAKNSLYLQMNSLRAEDTAVYYCARDPHSTGWYKDFDYWGQGTLVTVSSAAAHHHHHH
notes: as for B2
B10: the EC50 in assay [1] was found to be 108 nM; in assay [2], 0.481 nM; in assay [3] it was 0.0781 nM; in assay [4] it was 0.595 nM.
